Experimental findings from the RNAGym collection of RNA variant scans (doi:10.1021/acssynbio.7b00057) are described below.

Sequences and labels used below:
B1: Pistol ribozyme (parent)
chain: GGGUCGUUGUUCCAUAAUCGCGUGGAUAUGGCACGCAAGUUUCUACCGGGCACCGUAAAUGUCCGACUGGAGCCGUUCGGGCGGCUAUAAACAGACCUCAGGCCCGAAGCGUGGCGGCACCUGCCGCCGGUGGUAAAAAAGAUCGGAAGAGCACACGUCU

The variants in the data set derive from B1. In words: aptazyme ON/OFF ratio, guanine; higher = stronger switching; co-transcriptional cleavage with and without guanine.
Regarding U8C U10A U11G C13A, the “aptazyme ON/OFF ratio” value stood at 1.3.

Consider U8C U10A U11G C13G, for which the “aptazyme ON/OFF ratio” value was 1.29. For U8C U10A U11G C13U the value was 1.23; for U8C G9U U10G U11G C12A C13U, 1.17.

For U8C G9U U10G U11G C12A C13A, the “aptazyme ON/OFF ratio” value turned out to be 1.14. The figure for U8C G9U U10G U11G C12A C13G is 1.07; for U8C G9U U10C U11C C12U C13A it is 1.07. For U8C G9U U10C U11C C12U C13U the value was 1.07. For U8C G9U U10C U11C C12U C13G the value was 1.05; for U8C G9U U10G U11A C12U, 1.04; for U8C G9U U10G U11A C12G, 1.22. Take U8C G9U U10G U11A C12A: the “aptazyme ON/OFF ratio” value came out at 1.56.

In the case of U8C G9U U10A C13A, the “aptazyme ON/OFF ratio” value is 1.29. Regarding U8C G9U U10A C13G, the “aptazyme ON/OFF ratio” value came out at 1.06. In the case of U8C G9U U10A C13U, the “aptazyme ON/OFF ratio” value came to 1.37. For U8C G9U U10G U11G C12G C13U, the “aptazyme ON/OFF ratio” value was 1.26. For U8C G9U U10G U11G C12G C13G the value was 1.1. In the case of U8C G9U U10G U11G C12G C13A, the “aptazyme ON/OFF ratio” value is 1.14. For U8C G9U U10A C12G C13A, the “aptazyme ON/OFF ratio” value came out at 1.27. For the variant U8C G9U U10A C12G C13U, the “aptazyme ON/OFF ratio” value was 1.17.

For U8C G9U U10A C12G C13G, the “aptazyme ON/OFF ratio” value was found to be 1.13. For U8C U10C U11A, the “aptazyme ON/OFF ratio” value was determined as 1.63.

In the case of U8C G9U U11C, the “aptazyme ON/OFF ratio” value was found to be 1.07.

U8C G9U U11G: the “aptazyme ON/OFF ratio” value was determined as 1.48. For U8C G9U U11A the value was 1.35.

For U8C U10A C12A C13U, the “aptazyme ON/OFF ratio” value was 1.18. For U8C U10A C12A C13A the value was 1.26; for U8C U10A C12A C13G, 1.1. The figure for U8C U10C C12A C13G is 1.17. The figure for U8C U10C C12A C13U is 1.42; for U8C U10C C12A C13A it is 1.33; for U8C G9U U11A C12U C13U it is 1.17. As for U8C G9U U11A C12U C13G, the “aptazyme ON/OFF ratio” value amounted to 1.12.

Regarding U8C G9U U11A C12U C13A, the “aptazyme ON/OFF ratio” value worked out at 1.36. Consider U8C G9U U11C C12U C13U, for which the “aptazyme ON/OFF ratio” value was 1.1.

For the variant U8C G9U U11C C12U C13A, the “aptazyme ON/OFF ratio” value stood at 1.04. For U8C G9U U11C C12U C13G the value was 1.04.

Regarding U8C G9U U10A U11G C13U, the “aptazyme ON/OFF ratio” value amounted to 1.32.

Turning to U8C G9U U10A U11G C13A, the “aptazyme ON/OFF ratio” value was determined as 1.2. The figure for U8C G9U U10A U11G C13G is 1.11; for U8C G9U U10A U11C C12U C13U it is 1.23; for U8C G9U U10A U11C C12U C13A it is 1.19. U8C G9U U10A U11C C12U C13G: the “aptazyme ON/OFF ratio” value is 1.09.

As for U8C U10A C12U C13U, the “aptazyme ON/OFF ratio” value worked out at 1.32. For U8C U10A C12U C13A the value was 1.14; for U8C U10A C12U C13G, 1.11. As for U8C G9U U10G U11A C12G C13G, the “aptazyme ON/OFF ratio” value came out at 1.33. Take U8C G9U U10G U11A C12G C13A: the “aptazyme ON/OFF ratio” value turned out to be 1.16. For U8C G9U U10G U11A C12G C13U the value was 1.12; for U8C G9U U10A U11C C13U, 1.02; for U8C G9U U10A U11C C13A, 1.09. For U8C G9U U10A U11C C13G the value was 1.06; for U8C G9U U10A U11A C12U, 1.48.

Turning to U8C G9U U10A U11A C12A, the “aptazyme ON/OFF ratio” value was 1.39. The figure for U8C G9U U10A U11A C12G is 1.32; for U8C G9U U10A U11A C12A C13U it is 1.33. For U8C G9U U10A U11A C12A C13G the value was 1.1.

As to U8C G9U U10A U11A C12A C13A, the “aptazyme ON/OFF ratio” value is 1.28. On to U8C G9U U10C U11A C12G C13G, for which the “aptazyme ON/OFF ratio” value stood at 1.11. In the case of U8C G9U U10C U11A C12G C13A, the “aptazyme ON/OFF ratio” value was 1.08. For U8C G9U U10C U11A C12G C13U the value was 1.08; for U8C G9U U10C C12A C13G, 1.11; for U8C G9U U10C C12A C13U, 1.19. The figure for U8C G9U U10C C12A C13A is 1.1.

On to U8C U10C U11A C12A C13G, for which the “aptazyme ON/OFF ratio” value was determined as 1.14. For the variant U8C U10C U11A C12A C13U, the “aptazyme ON/OFF ratio” value was determined as 1.25.

With U8C U10C U11A C12A C13A, the “aptazyme ON/OFF ratio” value was 1.35. The figure for U8C G9U U10A U11G C12U C13A is 1.12. For U8C G9U U10A U11G C12U C13G the value was 1.14. For U8C G9U U10A U11G C12U C13U the value was 1.2. In the case of U8C G9U U10G U11C C12A C13U, the “aptazyme ON/OFF ratio” value came out at 1.52. Regarding U8C G9U U10G U11C C12A C13A, the “aptazyme ON/OFF ratio” value was determined as 1.22. For U8C G9U U10G U11C C12A C13G the value was 1.19; for U8C U10A U11C C13U, 1.03; for U8C U10A U11C C13A, 1.02. With U8C U10A U11C C13G, the “aptazyme ON/OFF ratio” value was determined as 1.04.

With U8C U10A U11A C13U, the “aptazyme ON/OFF ratio” value was determined as 1.21. For U8C U10A U11A C13G the value was 1.22. For the variant U8C U10A U11A C13A, the “aptazyme ON/OFF ratio” value was found to be 1.17. On to U8C G9U U10A C12U, for which the “aptazyme ON/OFF ratio” value came to 1.56. For U8C G9U U10A C12A the value was 1.8; for U8C G9U U10A C12G, 1.27. The figure for U8C U10A U11C C12A is 1.08. For U8C U10A U11C C12G, the “aptazyme ON/OFF ratio” value was 1.17.
